No end group written: not given here.
Key:
AtUBC8 [1] = target: T1, AtUBC8 (Arabidopsis thaliana, UniProt P35131); assay: E2~Ub thioester formation assay (immunoblot), AtUBC8; type: biochemical; settings: for inhibition of AtUBC8~Ub thioester formation: MUB protein 30 μM pre-incubated 15 min, 3 μM E2, immunoblot
T1 construct: 6xHis; made in house; host or cells: E. coli Rosetta 2 (DE3) pLacI
Method: E2 Thioester Formation Assays.
(§1) E2˜Ub thioester formation assays were performed at 25° C. using 0.25 μM E1, 3 μM E2, 12 μM Ub, and 50 mM HEPES, pH 8.0, initiated with addition of 1 mM Mg-ATP. When included, 30 μM AtMUB3 was pre-incubated for 15 min at 25° C. Reactions were terminated by the addition of non-reducing or reducing Laemmli buffer. Protein samples were visualized and analyzed as described, above, and quantified using Fuji Film Multi-Gauge software. Relative inhibition efficiency (RIE) was determined by comparing the inhibition efficiency of AtMUB3 mutants to wild type as follows; RIE=[1−(E2˜Ub with AtMUB3 mutant/E2)]/[1−(E2˜Ub with WT AtMUB3/E2)].
Lap-Bar Peptide Inhibition Assay.
Lap-Bar custom peptide ([…] SEQ ID NO: 1, Sigma-Aldrich and Peptide 2.0 Inc.), three scrambled peptides ([…] SEQ ID NO: 4, […] SEQ ID NO: 49, […] SEQ ID NO: 50, Peptide 2.0 Inc.) and amino acid controls were dissolved in 50 mM Tris-HCl, pH 7.5, 300 mM NaCl, and 10% Glycerol.

AtUBC8 Ser22Arg = target: T2, AtUBC8 Ser22Arg (Arabidopsis thaliana, UniProt P35131, S22R); assay: E2~Ub thioester formation assay, AtUBC8 Ser22Arg; type: biochemical; settings: AtMUB3 30 μM, three minute reaction
T2 construct: 6xHis (C); made in house; host or cells: E. coli Rosetta 2 (DE3) pLacI
T2 sequence (P35131 whole entry S22R): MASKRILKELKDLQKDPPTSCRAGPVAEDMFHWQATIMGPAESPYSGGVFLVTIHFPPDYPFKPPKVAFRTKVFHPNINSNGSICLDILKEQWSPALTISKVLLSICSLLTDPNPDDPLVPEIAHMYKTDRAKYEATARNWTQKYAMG
Method: as §1
(§2) To assess whether MUB binding regulates E2 function, E2˜Ub thioester formation assays were performed on AtUBC8. […] AtUBC8-Ub peptide linkages, which could complicate the analysis, were observed by 10 minutes, so three minute reactions were used in subsequent assays. Ser22 on the so-called backside binding site (BBS) of AtUBC8 is distant from the active site Cys85, and was previously determined to interfere with MUB-induced E2 localization to the PM (Dowil et al., 2011). E2Ub formation on AtUBC8 Ser22Arg was unaffected by AtMUB3, supporting the requirement of a direct interaction for inhibition (FIG. 1C). Since MUBs interact specifically with Arabidopsis group VI E2s, two additional subfamily members, AtUBC10 and AtUBC28 were tested. […]

AtUBC10 = target: T3, AtUBC10 (Arabidopsis thaliana, UniProt P35133); assay: E2~Ub thioester formation assay, AtUBC10; type: biochemical; settings: group VI E2, AtMUB3 30 μM
T3 construct: 6xHis (N); made in house; host or cells: E. coli Rosetta 2 (DE3) pLacI
T3 sequence (P35133 whole entry): as the sequence (P35131 whole entry S22R) above, with R22S, A41S, S46A, R131K, A132N, A136S, N140S counted along it
Method: as §1, §2

AtUBC28 = target: T4, AtUBC28 (Arabidopsis thaliana, UniProt Q94F47); assay: E2~Ub thioester formation assay, AtUBC28; type: biochemical; settings: group VI E2, AtMUB3 30 μM
T4 construct: 6xHis (N); made in house; host or cells: E. coli Rosetta 2 (DE3) pLacI
T4 sequence (Q94F47 whole entry): as the sequence (P35131 whole entry S22R) above, with R22S, A41S, E42D, I78V, A136S, N140S counted along it
Method: as §1, §2

AtUBC4 = target: T5, AtUBC4 (Arabidopsis thaliana, UniProt P42748); assay: E2~Ub thioester formation assay, AtUBC4; type: biochemical; settings: group IV E2, AtMUB3 30 μM
T5 construct: 6xHis (N); made in house; host or cells: E. coli Rosetta 2 (DE3) pLacI
T5 sequence (P42748 1-187): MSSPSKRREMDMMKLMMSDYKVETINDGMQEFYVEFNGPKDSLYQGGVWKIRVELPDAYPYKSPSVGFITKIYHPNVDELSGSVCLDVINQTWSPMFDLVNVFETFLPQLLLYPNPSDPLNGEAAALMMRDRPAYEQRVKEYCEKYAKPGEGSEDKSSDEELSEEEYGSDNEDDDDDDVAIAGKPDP
Method: as §1, §2

AtUBC36 = target: T6, AtUBC36 (Arabidopsis thaliana, UniProt Q9FZ48); assay: E2~Ub thioester formation assay, AtUBC36; type: biochemical; settings: group XV E2, AtMUB3 30 μM
T6 construct: 6xHis (N); made in house; host or cells: E. coli Rosetta 2 (DE3) pLacI
T6 sequence (Q9FZ48 1-153): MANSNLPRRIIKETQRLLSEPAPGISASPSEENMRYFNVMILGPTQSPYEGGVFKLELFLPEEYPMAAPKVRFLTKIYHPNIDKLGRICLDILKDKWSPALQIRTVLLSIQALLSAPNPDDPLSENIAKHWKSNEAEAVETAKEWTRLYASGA
Method: as §1, §2

Ube2D3 [2] = target: T7, Ube2D3 (Homo sapiens, UniProt P61077); assay: E2~Ub thioester formation assay, Ube2D3; type: biochemical; settings: immunoblot
T7 construct: 6xHis (C); made in house; host or cells: E. coli Rosetta 2 (DE3) pLacI
T7 sequence (P61077 whole entry): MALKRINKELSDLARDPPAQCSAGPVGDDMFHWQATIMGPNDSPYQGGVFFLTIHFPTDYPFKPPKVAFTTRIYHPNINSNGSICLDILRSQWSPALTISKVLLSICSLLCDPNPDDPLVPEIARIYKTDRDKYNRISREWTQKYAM
Method: as §1
To test whether the differences between plant and animal LBLs influence their activity, the inventors compared them in reciprocal inhibition experiments. […] Taken together, MUB inhibition of E2Ub formation is conserved and broadly relevant to organisms that use the ubiquitylation system.

AtUBC8 [3] = target: T1, AtUBC8; assay: Isothermal titration calorimetry; type: binding; settings: ITC, 8 μM AtUBC8, 110 μM AtMUB3 titrant, 25 mM HEPES pH 7.5, 200 mM NaCl
Method: FIG. 13. AtMUB binds AtUBC8 with submicromolar dissociation constant Kd as measured by isothermal titration calorimetry. Isothermal titration calorimetry (ITC) was performed on 8 μM AtUBC8 with 110 μM AtMUB3 as the titrant using a MicroCal iTC200 (GE). Proteins were purified as described for crystallization and dialyzed extensively against a buffer containing 25 mM HEPES, pH 7.5, 200 mM NaCl, 1 mM TCEP. Data was processed with MicroCal Origin 7 software, and normalized against the dialysis buffer's heat of dilution. This plot is representative of 3 independent experiments, which yielded similar results but were performed at different concentrations of NaCl.

AtUBC8 [4] = target: T1, AtUBC8; assay: GST pull-down assay with GST-AtUBC8; type: binding; settings: immunoblot
Method: (§3) GST-tagged AtUBC8 was induced as described above, and the soluble extract fraction was immobilized on GSH resin (Thermo Scientific) for 20 min, followed by three washes with sonication buffer. Equi-molar His-tagged AtMUB3, AtMUB3 mutants and Ub were incubated separately with AtUBC8 loaded GSH resin for 15 min, washed three times using sonication buffer, and boiled in Laemmli buffer. MUB recovery was determined by immunoblotting and chemiluminescent detection using Fujifilm LAS4000 imaging. For FLAG pull-down assay, His-tagged AtUBC8C85S—O-Ub was generated (Sakata et al., 2010). Flag-tagged AtMUB3 was immobilized on FLAG resin (Thermo Scientific) for 20 min, followed by three washes with sonication buffer. AtUBC8C85S—O-Ub protein or Ub were incubated separately with AtMUB3 loaded FLAG resin for 15 min, washed three times using sonication buffer, and boiled in Laemmli buffer.

[5] = target: T8, AtUBC8C85S with Ub linked to the active site through an oxyester bond (Arabidopsis thaliana, UniProt P35131, C85S); assay: FLAG pull-down assay with FLAG-AtMUB3; type: binding; settings: immunoblot
T8 construct: His; made in house; host or cells: E. coli Rosetta 2 (DE3) pLacI
T8 sequence (P35131 whole entry C85S): as the sequence (P35131 whole entry S22R) above, with R22S, C85S counted along it
Method: as §3

AtUBC8~Ub = target: T9, AtUBC8~Ub (Arabidopsis thaliana, UniProt P35131); assay: E2~Ub thioester discharge assay; type: biochemical; settings: 30 μM MUB, 100 mM lysine
T9 construct: 6xHis; made in house; host or cells: E. coli Rosetta 2 (DE3) pLacI
T9 sequence (P35131 whole entry): as the sequence (P35131 whole entry S22R) above, with R22S counted along it
Method: FIG. 11. […] AtUBC8˜Ub discharging assay is exposed to AtMUB3. The quantification is presented in line graph, top panel (+/−SEM and n=3 for all data points), while the immunoblot (IB) of triple parallel experiments is shown in bottom panel.
AtUBC8 (3 μM) was charged by incubating with 0.25 μM E1, 50 mM HEPES, pH 8.0, 1 mM Mg-ATP and 12 μM K0Ub for 3 min. The E1 was inactivated for 90 seconds with 50×E1 stop buffer (BostonBiochem). Lysine (100 mM) was added to the reaction with or without 30 μM MUB to initiate Ub leaving from the E2 active site.

Ube2D3 [6] = target: T7, Ube2D3; assay: HTRF-FRET E2 activation assay; type: biochemical
Method: FIG. 12. Ube2D3 Activation. Using HTRF-FRET, Ube2D3 activation was monitored with indicated concentrations of HsMUB to establish an inhibition curve. The initial velocity was linear over the first 10 minutes and is represented as percent E2 activated, with 100% velocity taken in the absence of MUB and 0% in the absence of ATP. Plot represents three independent assays+s.e.m., fit to the one-site binding equation. An additional three assays fit to the Hill equation with coefficient n produced nearly identical results with n1.
HTRF-FRET E2 activation assays were conducted using reagents adapted from the E1/E2 Lite kit (LifeSensors, Malvern, Pa.). […] Assays were read kinetically using a BioTek Synergy 4 plate reader equipped with Excitation 340/30 nm, Emission1 495/10 nm, Emission2 520/25 nm bandpass filters, a 400 nm dichroic mirror, and a Xenon flash lamp set to read Terbium and Fluorescein emission with a 100 μs time delay and 200 μs data collection time. The corrected FRET ratio was calculated as described in the TR-FRET manual (Molecular Devices): [(Em520/Em490)−(P*Em490))/Em490]*10000, where P=Em520/Em490 with terbium only, a proportionality factor to correct for terbium donor contribution to acceptor emission. The linear slope of the first 10 minutes of the reaction was determined as the initial velocity. […]

T1 sequence (P35131 whole entry): as the sequence (P35131 whole entry S22R) above, with R22S counted along it

AtMUB3: Arabidopsis thaliana Membrane-anchored Ubiquitin-fold protein 3, recombinant, His-tagged (VGQCKTPFGDIAGGVIVMHVV; also: His tag; listed as Arabidopsis thaliana)
inhibition of AtUBC8~Ub thioester formation (AtUBC8 [1]): strongly reduced
inhibition of E2~Ub formation on AtUBC8 Ser22Arg (AtUBC8 Ser22Arg): unaffected
inhibition of AtUBC10 activation (AtUBC10): strongly inhibited
inhibition of AtUBC28 activation (AtUBC28): strongly inhibited
inhibition of AtUBC4 activation (AtUBC4): unaffected
inhibition of AtUBC36 activation (AtUBC36): unaffected
inhibition of Ube2D3~Ub formation (Ube2D3 [2]): does not inhibit
dissociation constant Kd (AtUBC8 [3]): submicromolar
binding to GST-AtUBC8 in pull-down (AtUBC8 [4]): efficient bait
pull-down of AtUBC8C85S-O-Ub [5]: can pull-down
Ub discharge from AtUBC8~Ub (AtUBC8~Ub): increase Ub discharging
Ub discharge from AtUBC8~Ub (AtUBC8~Ub; listed as MUB): slightly faster

LKLPFGKT [minimal human LBL, human MUB Lap Bar Loop eight-residue peptide]
inhibition of AtUBC8~Ub formation by peptides (AtUBC8 [1]; peptide 5 mM, 3 μM AtUBC8): potent inhibitory activity

B1: AtMUB3 F77A (protein, UniProt Q9SW27 1-115, looked up, variant F77A)
Membrane-anchored …: MPEEESIDIKFRLYDGSDIGPFRYSAASTVDFLKQRVVSDWPKGKTVVPKGINEVKLISSGKILENNKTVGQCKTPAGDIAGGVIVMHVVVQPSLAKSKTEKKVDKAPKAVICTC
inhibition of AtUBC8~Ub thioester formation (AtUBC8 [1]): strong loss of inhibition

B2: HsMUB: human version of MUB, aka Ubl3, SEQ ID NO: 2 (protein, listed as Homo sapiens)
chain: MSSNVPADMINLRLILVSGKTKEFLFSPNDSASDIAKHVYDNWPMDWEEEQVSSPNILRLIYQGRFLHGNVTLGALKLPFGKTTVMHLVARETLPEPNSQGQRNREKTGESNCCVIL
inhibition of AtUBC8~Ub thioester formation (AtUBC8 [1]): potent inhibition
inhibition of Ube2D3~Ub formation (Ube2D3 [2]): potent inhibition
maximal inhibition of Ube2D3 activation (Ube2D3 [6]): up to 70%

Reference: patent US10829757B2, “MUB motif is an inhibitor of E2-ubiquitin thioester formation” (Saint Louis University, priority 2016, dated 2020)
